Test [1] addresses heterotrimeric Gq (Gαqβ1γ2) (UniProt P21279). Nature of the test: global least-squares fit of a kinetic model to steady-state GTPase rates; GTP-bound Gq species; purified proteins in unilamellar phospholipid vesicles; constants calculated from fitted rate constants (log average of 41 fits); protein concentrations counted on the bilayer volume, so association constants are about 13,000-fold higher than on the aqueous volume.

The target in test [2] is complex of agonist-bound m1 muscarinic cholinergic receptor with heterotrimeric Gq (Gαqβ1γ2) (UniProt P11229). The test is described as above.
Test [3] addresses heterotrimeric Gq (Gαqβ1γ2) (UniProt P21279). The test is described as follows: global least-squares fit of a kinetic model to steady-state GTPase rates; nucleotide-free Gq species; purified proteins in unilamellar phospholipid vesicles; constants calculated from fitted rate constants (log average of 41 fits); protein concentrations counted on the bilayer volume, so association constants are about 13,000-fold higher than on the aqueous volume.

In test [4] the target is complex of agonist-bound m1 muscarinic cholinergic receptor with heterotrimeric Gq (Gαqβ1γ2) (UniProt P11229). Described as above.
Test [5] has as its target heterotrimeric Gq (Gαqβ1γ2) (UniProt P21279). Nature of the test: global least-squares fit of a kinetic model to steady-state GTPase rates; GDP-bound Gq species; purified proteins in unilamellar phospholipid vesicles; constants calculated from fitted rate constants (log average of 41 fits); protein concentrations counted on the bilayer volume, so association constants are about 13,000-fold higher than on the aqueous volume.

Test [6] concerns the target complex of agonist-bound m1 muscarinic cholinergic receptor with heterotrimeric Gq (Gαqβ1γ2) (UniProt P11229). Described as above.

Sequence of m1 muscarinic cholinergic receptor (P11229 whole entry): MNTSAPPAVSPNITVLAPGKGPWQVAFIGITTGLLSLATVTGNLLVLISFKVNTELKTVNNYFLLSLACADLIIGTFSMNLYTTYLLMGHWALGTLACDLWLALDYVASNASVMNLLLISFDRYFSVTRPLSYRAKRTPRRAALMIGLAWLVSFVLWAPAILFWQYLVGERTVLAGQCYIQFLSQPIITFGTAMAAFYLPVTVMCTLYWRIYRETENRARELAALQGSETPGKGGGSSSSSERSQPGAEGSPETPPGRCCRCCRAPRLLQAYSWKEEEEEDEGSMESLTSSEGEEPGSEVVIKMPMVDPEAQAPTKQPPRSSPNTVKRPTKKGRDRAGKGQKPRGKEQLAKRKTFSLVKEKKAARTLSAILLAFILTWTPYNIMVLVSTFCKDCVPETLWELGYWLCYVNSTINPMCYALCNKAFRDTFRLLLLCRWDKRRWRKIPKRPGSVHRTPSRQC

Turning to “m1 muscarinic cholinergic receptor (from UniProt P11229 1-460)”, in test [1], the fold faster dissociation with GTP bound is 70 fold.
In the case of “phospholipase C-β1 (from UniProt P10687 1-1216) (enzyme)”, the Ka in test [1] was 9.6e+06 M⁻¹; in test [2], 390000 M⁻¹; in test [3], 370000 M⁻¹; in test [4], 560000 M⁻¹; in test [5], 280000 M⁻¹; in test [6], 2300 M⁻¹. In test [6], the fold faster dissociation than from Gq-GDP without receptor was 90 fold. Moreover, the t1/2 of dissociation in test [6] was 0.3 s.

These data come from article PMC2518520.
